The record followed here is PMC6237750.

In data set [1] the target is T1, DNA polymerase beta I260Q (NMR, crystal) (UniProt P06746 1-335, I260Q). Put plainly: X-ray crystallography; binary; NaI soak; NMR: 50 mM HEPES, 100 mM KCl, 2 mM DTT, 10 mM MgCl2, 10% D2O, pH 7.4; crystals: 18-20% PEG 3350, 50 mM HEPES pH 7.5, 175-250 mM Na acetate, 2 mM TCEP, 1% tert-b.
Data set [2] addresses T1, DNA polymerase beta I260Q (NMR, crystal). Put plainly: NMR; binary, 10 mM MgCl2; NMR: 50 mM HEPES, 100 mM KCl, 2 mM DTT, 10 mM MgCl2, 10% D2O, pH 7.4; crystals: 18-20% PEG 3350, 50 mM HEPES pH 7.5, 175-250 mM Na acetate, 2 mM TCEP, 1% tert-b.

B1: X-ray substrate template A (16) (dsDNA)
DNA 1: CCGACAGCGCATCAGC
DNA 2: GCTGATGCGC
DNA 3: GTCGG
On to B1, for which the binding result in data set [1] is listed as “binds”.

B2: NMR substrate template T (20) (dsDNA)
DNA 1: CGACCGACTGCGCATCAGCC
DNA 2: GGCTGATGCGC
DNA 3: GTCGGTCG
With B2, the binding result in data set [2] is on record as “binds”.
